Holding throughout (experiment): fluorescence polarisation
(In general: Fluorescence polarisation rises when a labelled molecule tumbles more slowly, as on binding a larger partner.)

The target of one test is T1, DegS Q191A (E. coli, UniProt P0AEE3 27-355, Q191A).
T1 sequence (looked up): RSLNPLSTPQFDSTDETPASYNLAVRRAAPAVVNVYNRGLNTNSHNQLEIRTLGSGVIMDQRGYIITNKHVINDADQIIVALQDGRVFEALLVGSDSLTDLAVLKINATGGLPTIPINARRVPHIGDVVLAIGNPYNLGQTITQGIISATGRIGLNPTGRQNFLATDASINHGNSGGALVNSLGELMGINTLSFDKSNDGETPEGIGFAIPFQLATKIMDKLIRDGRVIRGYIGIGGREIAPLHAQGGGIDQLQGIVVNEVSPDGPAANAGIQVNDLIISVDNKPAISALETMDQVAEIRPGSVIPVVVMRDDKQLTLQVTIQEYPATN

In another test the target is T2, DegS T169A (E. coli, UniProt P0AEE3 27-355, T169A).
T2 sequence (looked up): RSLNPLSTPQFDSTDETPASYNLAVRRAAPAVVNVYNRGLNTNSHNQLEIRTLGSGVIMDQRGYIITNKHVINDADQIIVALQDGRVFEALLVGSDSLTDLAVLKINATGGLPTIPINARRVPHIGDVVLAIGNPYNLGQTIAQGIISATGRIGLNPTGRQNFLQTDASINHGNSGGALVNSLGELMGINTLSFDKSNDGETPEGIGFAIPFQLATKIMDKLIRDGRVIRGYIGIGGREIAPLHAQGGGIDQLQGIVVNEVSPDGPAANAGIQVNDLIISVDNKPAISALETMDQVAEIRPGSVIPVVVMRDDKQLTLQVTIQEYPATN

Another test concerns the target T3, DegS T167V (E. coli, UniProt P0AEE3 27-355, T167V).
T3 sequence (looked up): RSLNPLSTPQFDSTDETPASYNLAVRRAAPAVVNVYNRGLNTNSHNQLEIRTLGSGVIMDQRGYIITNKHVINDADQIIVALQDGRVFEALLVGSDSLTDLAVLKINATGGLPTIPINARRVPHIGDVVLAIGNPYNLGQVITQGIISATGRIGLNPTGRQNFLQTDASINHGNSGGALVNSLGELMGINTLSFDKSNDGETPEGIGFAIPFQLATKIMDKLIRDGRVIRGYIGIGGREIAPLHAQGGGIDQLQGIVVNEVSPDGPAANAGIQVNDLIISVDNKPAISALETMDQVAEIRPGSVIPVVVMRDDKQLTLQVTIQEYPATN

A further test has as its target T4, DegS I179A/H198P (E. coli, UniProt P0AEE3 27-355, I179A | H198P).
T4 sequence (looked up): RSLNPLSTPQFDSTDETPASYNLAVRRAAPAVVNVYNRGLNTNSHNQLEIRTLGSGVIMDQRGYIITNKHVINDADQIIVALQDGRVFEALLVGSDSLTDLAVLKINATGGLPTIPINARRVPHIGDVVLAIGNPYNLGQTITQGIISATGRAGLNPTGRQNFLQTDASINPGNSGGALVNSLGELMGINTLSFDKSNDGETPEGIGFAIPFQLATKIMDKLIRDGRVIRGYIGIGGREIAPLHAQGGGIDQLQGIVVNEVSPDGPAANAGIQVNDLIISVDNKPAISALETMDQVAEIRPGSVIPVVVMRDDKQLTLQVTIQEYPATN

A further test has as its target T5, DegS F234A (E. coli, UniProt P0AEE3 27-355, F234A).
T5 sequence (looked up): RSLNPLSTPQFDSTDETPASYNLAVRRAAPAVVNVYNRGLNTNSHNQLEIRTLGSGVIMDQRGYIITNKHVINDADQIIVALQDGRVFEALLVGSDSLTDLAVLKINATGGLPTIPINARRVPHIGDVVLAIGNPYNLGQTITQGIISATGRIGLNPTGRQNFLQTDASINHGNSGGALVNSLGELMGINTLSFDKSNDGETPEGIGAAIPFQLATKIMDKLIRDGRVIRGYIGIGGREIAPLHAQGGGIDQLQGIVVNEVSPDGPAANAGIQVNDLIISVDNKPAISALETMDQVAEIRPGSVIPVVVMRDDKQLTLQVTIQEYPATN

The next test concerns the target T6, DegS E230A (E. coli, UniProt P0AEE3 27-355, E230A).
T6 sequence (looked up): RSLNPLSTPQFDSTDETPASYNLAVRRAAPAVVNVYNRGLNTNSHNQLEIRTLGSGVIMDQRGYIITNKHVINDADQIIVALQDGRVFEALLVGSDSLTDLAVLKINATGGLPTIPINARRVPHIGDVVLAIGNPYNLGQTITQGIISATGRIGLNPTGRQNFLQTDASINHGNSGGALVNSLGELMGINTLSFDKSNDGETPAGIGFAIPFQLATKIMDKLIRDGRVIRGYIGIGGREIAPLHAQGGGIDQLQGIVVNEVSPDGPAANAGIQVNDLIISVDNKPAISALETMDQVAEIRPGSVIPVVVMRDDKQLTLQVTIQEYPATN

Where no end group is shown, it is not given here. fluorescein = fluorescein, a fluorescent label on the peptide N-terminus

One may read the Kd as the constant that tells how readily two partners part at equilibrium. With fluorescein-DNRDGNVYYF [fluorescent OMP peptide fluorescein-DNRDGNVYYF], the Kd with DegS Q191A stood at 3400 ± 1300 nM; in the test with DegS T169A, 1800 ± 100 nM; in the test with DegS T167V, 1800 ± 100 nM; with DegS I179A/H198P, 1600 ± 100 nM; with DegS F234A, 5900 ± 600 nM; in the test with DegS E230A, 5700 ± 1300 nM.
